The source of these data is patent US7657380.

Assay [1] addresses T1, EGFR extracellular domain (R&D Systems) (UniProt P00533 25-645, limits assumed). Put plainly: SPR, Fab over EGFR ECD on CM5 chip.
Assay [2] concerns the target T1, EGFR extracellular domain (R&D Systems). Put plainly: SPR, Fab over EGFR on CM5 chip. For orientation: Surface plasmon resonance follows binding to a sensor surface in real time, without labels.

B1: C225 L2/H4 Fab (Fab, V domains shown)
VH: QVQLQQSGPGLVKPSQTLSLTCTVSGFSLTNYGVHWVRQAPGKGLEWLGVIWSGGNTDYNTSLKSRLTISKDNSKSQVVLTMTNMDPVDTATYYCARALTYYDYEFAYWGQGTLVTVSS
VL: DILLTQSPATLSLSPGERVTLSCRASQSIGTNIHWYQQKPDQSPKLLIKYASESISGIPSRFSGSGSGTDFTLTISSLQPEDFADYYCQQNNNWPTTFGAGTKLEIK
For B1, in assay [1], the Kd (as a rule, the constant that tells how readily two partners part at equilibrium) was found to be 264 nM; the koff (in general, a measure of how fast the partners let go of each other) came out at 0.00473 s⁻¹; the kon (in general, the second-order rate constant of association) is 17900 M⁻¹ s⁻¹.

B2: ICR62 WT Fab (Fab, V domains shown)
VH: QVNLLQSGAALVKPGASVKLSCKGSGFTFTDYKIHWVKQSHGKSLEWIGYFNPNSGYSTYNEKFKSKATLTADKSTDTAYMELTSLTSEDSATYYCTRLSPGGYYVMDAWGQGASVTVSS
VL: DIQMTQSPSFLSASVGDRVTINCKASQNINNYLNWYQQKLGEAPKRLIYNTNNLQTGIPSRFSGSGSGTDYTLTISSLQPEDFATYFCLQHNSFPTFGAGTKLELK
For B2, in assay [2], the affinity, expressed as Kd, was 0.257 nM; the koff is 2.53e-05 s⁻¹; the kon is 98600 M⁻¹ s⁻¹.

B3: ICR62 L2/H9 Fab (Fab, V domains shown)
VH: QVQLQQSGPGLVKPGASVKVSCKGSGFTFTDYKIHWVRQAPGKSLEWMGYFNPNSGYSTYNEKFQGRVTITADKSTDTAYMELSSLRSEDTAVYYCTRLSPGGYYVMDAWGQGTLVTVSS
VL: DIQMTQSPSSLSASVGDRVTITCRASQNINNYLNWYQQKPGKAPKRLIYNTNNLQTGIPSRFSGSGSGTDYTLTISSLQPEDFATYFCLQHNSFPTFGAGTKLEIK
B3: in assay [2], binding was characterised by a dissociation constant (Kd) of 0.45 nM, the koff is 0.000106 s⁻¹ and the kon worked out at 235000 M⁻¹ s⁻¹.
